Laboratory results published in patent publication US20100021448.
Where a chain is given by its changes, count along the chain named.

Biological target: T1, I-CreI variant RRN (R44, R68, N70, N75)
T1 chain: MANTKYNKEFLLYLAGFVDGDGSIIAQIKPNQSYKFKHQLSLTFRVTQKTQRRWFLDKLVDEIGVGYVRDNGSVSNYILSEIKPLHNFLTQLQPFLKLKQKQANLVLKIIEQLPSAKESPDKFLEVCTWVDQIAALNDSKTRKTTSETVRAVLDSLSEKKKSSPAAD

B1: I-CreI variant DRN (D44, R68, N70, N75) (protein)
chain: T1 chain with R45D
cleavage of chimeric DNA targets on co-expression: no cleavage of chimeric targets could be detected by co-expression of the same weak mutants
